Here are results for one molecule from paper PMC8680157 (Nature, 2021).

The assay has as its target histone H4 (in the NCP), unmodified at K20 (human, UniProt P62805 1-103). Nature of the assay: cryo-EM structure.

B1: BARD1 (ARD–BRCT), residues 415–777, as tethered to the NCP in BARD1^AB–NCPub (domain or fragment)
chain: KLLPNMAVKRNHRGETLLHIASIKGDIPSVEYLLQNGSDPNVKDHAGWTPLHEACNHGHLKVVELLLQHKALVNTTGYQNDSPLHDAAKNGHVDIVKLLLSYGASRNAVNIFGLRPVDYTDDESMKSLLLLPEKNESSSASHCSVMNTGQRRDGPLVLIGSGLSSEQQKMLSELAVILKAKKYTEFDSTVTHVVVPGDAVQSTLKCMLGILNGCWILKFEWVKACLRRKVCEQEEKYEIPEGPRRSRLNREQLLPKLFDGCYFYLWGTFKHHPKDNLIKLVTAGGGQILSRKPKPDSDVTQTINTVAYHARPDSDQRFCTQYIIYEDLCNYHPERVRQGKVWKAPSSWFIDCVMSFELLPLDS
For B1, the binding result was “binds”.
